From US20240117018A1

Tests used:
Assay in all cases: cell-based or functional assay
[1] = molecular target: HIV-1 Env of pseudovirus Ce0393_C3 (HIV-1)
[2] = molecular target: HIV-1 Env of pseudovirus HIV-001428-2.42 (HIV-1)
[3] = molecular target: HIV-1 Env of pseudovirus ZM214M.PL15 (HIV-1)
[4] = molecular target: HIV-1 Env of pseudovirus ZM233M.PB6 (HIV-1)
[5] = molecular target: HIV-1 Env of pseudovirus WITO4160.33 (HIV-1)
[6] = molecular target: HIV-1 Env of pseudovirus CNE30 (HIV-1)
[7] = molecular target: HIV-1 Env of pseudovirus ZM249M.PL1 (HIV-1)
[8] = molecular target: HIV-1 Env of pseudovirus Ce703010054_2A2 (HIV-1)
[9] = molecular target: HIV-1 Env of pseudovirus 6535.3 (HIV-1)
[10] = molecular target: HIV-1 Env of pseudovirus 246F C1G (HIV-1)
[11] = molecular target: HIV-1 Env of pseudovirus 1012_11_TC21_3257 (HIV-1)
[12] = molecular target: HIV-1 Env of pseudovirus Ce0682_E4 (HIV-1)
[13] = molecular target: HIV-1 Env of pseudovirus 3365.v2.c2 (HIV-1)
[14] = molecular target: HIV-1 Env of pseudovirus CNE53 (HIV-1)
[15] = molecular target: HIV-1 Env of pseudovirus Du156.12 (HIV-1)
[16] = molecular target: HIV-1 Env of pseudovirus HIV-16845-2.22 (HIV-1)
[17] = molecular target: HIV-1 Env of pseudovirus THRO4156.18 (HIV-1)
[18] = molecular target: HIV-1 Env of pseudovirus Ce1172_H1 (HIV-1)
[19] = molecular target: HIV-1 Env of pseudovirus PVO.4 (HIV-1)
[20] = molecular target: HIV-1 Env of pseudovirus REJO4541.67 (HIV-1)
[21] = molecular target: HIV-1 Env of pseudovirus Q842.d12 (HIV-1)
[22] = molecular target: HIV-1 Env of pseudovirus Du422.1 (HIV-1)
[23] = molecular target: HIV-1 Env of pseudovirus TRJO4551.58 (HIV-1)
[24] = molecular target: HIV-1 Env of pseudovirus Du172.17 (HIV-1)
[25] = molecular target: HIV-1 Env of pseudovirus RHPA4259.7 (HIV-1)
[26] = molecular target: HIV-1 Env of pseudovirus 6240_08_TA5_4622 (HIV-1)
[27] = molecular target: HIV-1 Env of pseudovirus 1006_11_C3_1601 (HIV-1)
[28] = molecular target: HIV-1 Env of pseudovirus 1056_10_TA11_1826 (HIV-1)
[29] = molecular target: HIV-1 Env of pseudovirus CAP210.2.00.E8 (HIV-1)
[30] = molecular target: HIV-1 Env of pseudovirus CNE52 (HIV-1)
[31] = molecular target: HIV-1 Env of pseudovirus Ce2010_F5 (HIV-1)
[32] = molecular target: HIV-1 Env of pseudovirus CNE20 (HIV-1)
[33] = molecular target: HIV-1 Env of pseudovirus ZM197M.PB7 (HIV-1)
[34] = molecular target: HIV-1 Env of pseudovirus Ce704809221_1B3 (HIV-1)
[35] = molecular target: HIV-1 Env of pseudovirus 0260.v5.c36 (HIV-1)

NIH 45-46 (antibody)
IC50 [1]: 0.32 µg/mL | IC80 [1]: 1.07 µg/mL | IC50 [2]: < 0.001 µg/mL | IC80 [2]: 0.01 µg/mL | IC50 [3]: 0.05 µg/mL | IC80 [3]: 0.39 µg/mL | IC50 [4]: 1.86 µg/mL | IC80 [4]: 16.5 µg/mL | IC50 [5]: 0.01 µg/mL | IC80 [5]: 0.08 µg/mL | IC50 [6]: 0.34 µg/mL | IC80 [6]: 1.48 µg/mL | IC50 [7]: 0.02 µg/mL | IC80 [7]: 0.06 µg/mL | IC50 [8]: 0.22 µg/mL | IC80 [8]: 0.97 µg/mL | IC50 [9]: 0.14 µg/mL | IC80 [9]: 0.28 µg/mL | IC50 [10]: > 50 µg/mL | IC80 [10]: > 50 µg/mL | IC50 [11]: 0.01 µg/mL | IC80 [11]: 0.04 µg/mL | IC50 [12]: 0.07 µg/mL | IC80 [12]: 0.25 µg/mL | IC50 [13]: 0.11 µg/mL | IC80 [13]: 0.11 µg/mL | IC50 [14]: 0.01 µg/mL | IC80 [14]: 0.04 µg/mL | IC50 [15]: 0.01 µg/mL | IC80 [15]: 0.05 µg/mL | IC50 [16]: 2.05 µg/mL | IC80 [16]: 12.1 µg/mL | IC50 [17]: 1.59 µg/mL | IC80 [17]: 6.02 µg/mL | IC50 [18]: > 50 µg/mL | IC80 [18]: > 50 µg/mL | IC50 [19]: 0.17 µg/mL | IC80 [19]: 0.47 µg/mL | IC50 [20]: 0.003 µg/mL | IC80 [20]: 0.01 µg/mL | IC50 [21]: 0.03 µg/mL | IC80 [21]: 0.03 µg/mL | IC50 [22]: > 50 µg/mL | IC80 [22]: > 50 µg/mL | IC50 [23]: 0.01 µg/mL | IC80 [23]: 0.05 µg/mL | IC50 [24]: > 30 µg/mL | IC80 [24]: > 30 µg/mL | IC50 [25]: < 0.05 µg/mL | IC80 [25]: < 0.05 µg/mL | IC50 [26]: 0.44 µg/mL | IC80 [26]: 1.55 µg/mL | IC50 [27]: 0.05 µg/mL | IC80 [27]: 0.31 µg/mL | IC50 [28]: 0.12 µg/mL | IC80 [28]: 0.59 µg/mL | IC50 [29]: > 50 µg/mL | IC80 [29]: > 50 µg/mL | IC50 [30]: 0.03 µg/mL | IC80 [30]: 0.12 µg/mL | IC50 [31]: 0.13 µg/mL | IC80 [31]: 0.43 µg/mL | IC50 [32]: 8.71 µg/mL | IC80 [32]: 47 µg/mL | IC50 [33]: 0.14 µg/mL | IC80 [33]: 0.64 µg/mL | IC50 [34]: 0.15 µg/mL | IC80 [34]: 0.88 µg/mL

VRC07 (antibody)
IC50 [1]: 0.182 µg/mL | IC80 [1]: 0.634 µg/mL | IC50 [2]: 0.004 µg/mL | IC80 [2]: 0.016 µg/mL | IC50 [3]: 0.198 µg/mL | IC80 [3]: 1.42 µg/mL | IC50 [4]: 0.152 µg/mL | IC80 [4]: 0.625 µg/mL | IC50 [5]: 0.042 µg/mL | IC80 [5]: 0.193 µg/mL | IC50 [6]: 0.326 µg/mL | IC80 [6]: 1.08 µg/mL | IC50 [7]: 0.041 µg/mL | IC80 [7]: 0.145 µg/mL | IC50 [8]: 0.19 µg/mL | IC80 [8]: 0.912 µg/mL | IC50 [9]: 0.169 µg/mL | IC80 [9]: 0.517 µg/mL | IC50 [10]: 0.286 µg/mL | IC80 [10]: 1.04 µg/mL | IC50 [11]: 0.014 µg/mL | IC80 [11]: 0.045 µg/mL | IC50 [12]: 0.039 µg/mL | IC80 [12]: 0.239 µg/mL | IC50 [13]: 0.038 µg/mL | IC80 [13]: 0.109 µg/mL | IC50 [14]: 0.031 µg/mL | IC80 [14]: 0.086 µg/mL | IC50 [15]: 0.041 µg/mL | IC80 [15]: 0.149 µg/mL | IC50 [16]: 1.21 µg/mL | IC80 [16]: 6.15 µg/mL | IC50 [17]: 2.4 µg/mL | IC80 [17]: 12.2 µg/mL | IC50 [18]: > 50 µg/mL | IC80 [18]: > 50 µg/mL | IC50 [19]: 0.063 µg/mL | IC80 [19]: 0.226 µg/mL | IC50 [20]: 0.011 µg/mL | IC80 [20]: 0.037 µg/mL | IC50 [21]: 0.015 µg/mL | IC80 [21]: 0.051 µg/mL | IC50 [22]: > 50 µg/mL | IC80 [22]: > 50 µg/mL | IC50 [23]: 0.032 µg/mL | IC80 [23]: 0.125 µg/mL | IC50 [24]: 0.796 µg/mL | IC80 [24]: 3.66 µg/mL | IC50 [25]: 0.017 µg/mL | IC80 [25]: 0.048 µg/mL | IC50 [26]: 0.448 µg/mL | IC80 [26]: 1.54 µg/mL | IC50 [27]: 0.015 µg/mL | IC80 [27]: 0.046 µg/mL | IC50 [28]: 0.239 µg/mL | IC80 [28]: 1.11 µg/mL | IC50 [29]: > 50 µg/mL | IC80 [29]: > 50 µg/mL | IC50 [30]: 0.042 µg/mL | IC80 [30]: 0.142 µg/mL | IC50 [31]: 0.131 µg/mL | IC80 [31]: 0.48 µg/mL | IC50 [32]: 0.06 µg/mL | IC80 [32]: 0.129 µg/mL | IC50 [33]: 0.307 µg/mL | IC80 [33]: 1.27 µg/mL | IC50 [35]: 0.448 µg/mL | IC80 [35]: 1.62 µg/mL | IC50 [34]: 0.273 µg/mL | IC80 [34]: 1.14 µg/mL
